In patent publication US20090324601A1 (published 2009):
Values joined by “and” are separate entries in the source; they are usually repeats but may differ in a detail not shown here. Equal entries are not always repeated.

Experiments:
[1] = target: T1, PDGFR-alpha on human osteosarcoma MG-63 cells (human, UniProt P16234 24-1089); assay: cell-based or functional assay
[2] = target: T2, murine PDGFRa on NIH3T3 cells (murine, UniProt P26618 25-1089); assay: FACS on NIH3T3 cells, goat anti-human IgG Cy5
T2 construct: whole, on cells; also called mouse PDGFR-alpha

[3] = target: T3, PDGFR-alpha on MG-63 cells (human, UniProt P16234 24-1089); assay: cell-based or functional assay
[4] = target: T3, PDGFR-alpha on MG-63 cells; assay: cell-based or functional assay; remark: listed apart in the source
[5] = target: T3, PDGFR-alpha on MG-63 cells; assay: FACS titration on MG-63 cells expressing PDGFR-alpha, 4 °C, Cy5 secondary antibody, nonlinear fit of geometric mean fluorescence
[6] = target: T1, PDGFR-alpha on human osteosarcoma MG-63 …; assay: FACS titration on MG-63 cells, 4 C, Cy5 goat anti-human detection
[7] = target: T4, Recombinant human sPDGFR-alpha (R&D catalog# 322-PR/CF) (human, UniProt P16234 24-528); assay: Biacore T100 SPR, 22 C, mAb immobilised on CM5, sPDGFR-alpha injected, 1:1 fit
T4 construct: extracellular domain; Bought reagent; also called soluble PDGFRa; recombinant soluble PDGFR-alpha extracellular domain
T4 sequence (P16234 24-528): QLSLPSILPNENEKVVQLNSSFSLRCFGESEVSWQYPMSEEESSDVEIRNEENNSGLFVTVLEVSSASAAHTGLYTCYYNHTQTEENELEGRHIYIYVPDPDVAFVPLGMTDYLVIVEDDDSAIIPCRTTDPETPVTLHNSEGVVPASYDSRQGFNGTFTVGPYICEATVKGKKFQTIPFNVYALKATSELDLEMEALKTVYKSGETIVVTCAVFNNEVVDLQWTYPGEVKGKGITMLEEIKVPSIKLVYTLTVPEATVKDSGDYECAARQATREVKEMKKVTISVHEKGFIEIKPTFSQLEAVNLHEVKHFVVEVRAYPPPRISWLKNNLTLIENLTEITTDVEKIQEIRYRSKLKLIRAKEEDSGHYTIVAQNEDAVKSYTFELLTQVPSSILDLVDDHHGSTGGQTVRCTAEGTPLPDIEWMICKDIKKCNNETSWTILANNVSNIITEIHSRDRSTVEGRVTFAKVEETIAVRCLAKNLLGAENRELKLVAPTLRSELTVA

T3 sequence (P16234 24-1089): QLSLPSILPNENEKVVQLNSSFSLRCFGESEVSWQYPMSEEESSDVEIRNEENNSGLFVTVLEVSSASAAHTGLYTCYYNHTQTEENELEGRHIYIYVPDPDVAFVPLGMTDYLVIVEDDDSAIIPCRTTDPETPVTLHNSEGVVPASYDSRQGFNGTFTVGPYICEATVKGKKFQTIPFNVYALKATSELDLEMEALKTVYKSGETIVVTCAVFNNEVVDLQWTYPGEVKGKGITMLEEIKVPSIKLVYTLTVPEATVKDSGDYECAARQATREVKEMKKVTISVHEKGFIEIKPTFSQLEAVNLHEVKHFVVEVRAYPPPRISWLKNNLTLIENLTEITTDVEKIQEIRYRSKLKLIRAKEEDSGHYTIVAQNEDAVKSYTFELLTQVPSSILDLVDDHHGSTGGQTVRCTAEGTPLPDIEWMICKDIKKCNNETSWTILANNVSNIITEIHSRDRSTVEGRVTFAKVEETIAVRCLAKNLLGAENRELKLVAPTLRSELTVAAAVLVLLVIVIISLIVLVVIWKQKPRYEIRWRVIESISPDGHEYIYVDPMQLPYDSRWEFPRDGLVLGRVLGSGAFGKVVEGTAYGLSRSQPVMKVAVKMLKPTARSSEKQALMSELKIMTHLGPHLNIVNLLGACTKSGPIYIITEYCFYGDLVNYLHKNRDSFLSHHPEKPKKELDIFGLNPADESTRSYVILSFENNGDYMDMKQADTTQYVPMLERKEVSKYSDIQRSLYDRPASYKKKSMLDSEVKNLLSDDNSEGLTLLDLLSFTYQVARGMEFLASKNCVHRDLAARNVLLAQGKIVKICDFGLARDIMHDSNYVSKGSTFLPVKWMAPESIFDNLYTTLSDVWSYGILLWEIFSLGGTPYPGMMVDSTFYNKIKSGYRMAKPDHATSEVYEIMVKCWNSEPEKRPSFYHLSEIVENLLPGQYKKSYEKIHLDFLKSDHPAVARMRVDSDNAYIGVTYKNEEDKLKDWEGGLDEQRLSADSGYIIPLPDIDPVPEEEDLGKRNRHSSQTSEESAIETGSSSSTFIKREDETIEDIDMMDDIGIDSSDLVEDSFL
T1 sequence (P16234 24-1089): as above
T2 sequence (P26618 25-1089): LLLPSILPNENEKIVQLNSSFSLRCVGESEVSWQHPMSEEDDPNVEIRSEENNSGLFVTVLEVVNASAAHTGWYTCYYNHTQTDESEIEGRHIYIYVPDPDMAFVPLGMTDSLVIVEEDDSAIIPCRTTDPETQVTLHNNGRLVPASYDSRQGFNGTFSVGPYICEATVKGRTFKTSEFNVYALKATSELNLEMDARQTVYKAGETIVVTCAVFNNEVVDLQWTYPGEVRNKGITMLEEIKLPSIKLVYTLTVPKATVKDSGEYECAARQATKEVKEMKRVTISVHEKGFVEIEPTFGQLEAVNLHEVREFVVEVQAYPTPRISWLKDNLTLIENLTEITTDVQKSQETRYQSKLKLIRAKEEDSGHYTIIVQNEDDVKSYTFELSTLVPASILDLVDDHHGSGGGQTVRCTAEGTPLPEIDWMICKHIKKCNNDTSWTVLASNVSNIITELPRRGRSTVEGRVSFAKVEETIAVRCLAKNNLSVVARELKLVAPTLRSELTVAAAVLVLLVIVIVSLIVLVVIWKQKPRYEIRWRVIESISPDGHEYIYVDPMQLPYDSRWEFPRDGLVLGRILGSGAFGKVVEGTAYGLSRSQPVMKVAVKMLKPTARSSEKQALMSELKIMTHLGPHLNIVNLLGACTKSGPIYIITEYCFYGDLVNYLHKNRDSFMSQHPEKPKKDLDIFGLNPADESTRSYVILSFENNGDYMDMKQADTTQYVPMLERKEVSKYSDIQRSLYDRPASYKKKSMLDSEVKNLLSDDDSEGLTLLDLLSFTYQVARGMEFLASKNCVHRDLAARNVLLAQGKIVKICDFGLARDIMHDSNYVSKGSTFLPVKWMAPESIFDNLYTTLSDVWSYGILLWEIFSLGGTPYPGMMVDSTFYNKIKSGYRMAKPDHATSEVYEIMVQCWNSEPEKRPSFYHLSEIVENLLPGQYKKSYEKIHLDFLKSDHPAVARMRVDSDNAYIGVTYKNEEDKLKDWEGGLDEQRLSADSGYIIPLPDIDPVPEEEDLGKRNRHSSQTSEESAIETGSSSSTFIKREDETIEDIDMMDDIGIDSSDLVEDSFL

Row | Proliferation Assay: IC50 ng/ml (1-6-06) [1] [ng/mL] | Proliferation Assay: IC50 ng/ml (1-23-06) [1] [ng/mL] | pTyr Assay: % Inhibition @ 2 µg/ml [1] [%] | binding result [2] | Proliferation Assay: IC50 (1-6-06) [1] [nM] | Proliferation Assay: IC50 (1-23-06) [1] [nM] | Average pTyr Inhibition [3] [%] | PROLIFERATION ASSAY: MG-63 CELLS, IC50 [4] | Kd [5] | Kd [6] [nM] | Kd [7] [nM] | koff [7] [s⁻¹] | kon [7] [M⁻¹ s⁻¹] | Binder
1 | 1080 | 649 | 97 | no binding (tested: 10 ug/ml) | – | – | – | – | – | – | – | – | – | 2.351.3 (antibody, V domains shown) VH: QVQLVQSGAEVKKPGASVKVSCKASGYTFIGYYLHWVRQAPGQGLEWMGSINPNSGGTNYAQKFQGRVTMIRDTSINTAYMELSRLRSDDTAVYYCARDKRITMVRGVHYLYYGWDVWGQGTTVTVSS VL: DIQMTQSPSSLSASVGDRVTITCRASQVISNYLAWYQQKPGKVPQLLIYAASTLQSGVPSRFSGSGSGTDFTLTISSLQPEDVATYYCQNYKSAPWTFGQGTKVEIK
2 | 404 | 471 | 100 | no binding (tested: 10 ug/ml) | 2.7 | 3.1 | – | – | – | – | – | – | – | 3.341.2 (antibody, V domains shown, Only variable regions) VH: EVQLVESGGGLVQPGGSLRLSCAASGFTFSSYSMNWVRQAPGKGLEWVSFISGSSSTMYYADSVKGRFTISRDNAKNSLYLQMNSLRDEDTAVYYCARLRYFDWSYAFDIWGQGTMVTVSS VL: DIQMTQSPSSVSTSVGDRVTITCRASQGIRSWLAWYQQRPGKAPKLLIYAASSLQNGVPSRFSGSGSGTDFTLTISSLQPEDFATYFCQQATSFPFTFGPGTKVDIN
3 | – | – | – | – | – | – | 99 | 0.37 nM | 0.328 nM | – | – | – | – | 2.175.3 (antibody, V domains shown) VH: QVHLVESGGGLVKPGGSLRLSCAASGFTFSDYYMHWIRQAPGKGLEWVSYISRSGSLIYYVDSVKGRFTISRDNAKNSLNLQMNSLRAEDTAVYYCARGGPYSGSPFDYWGQGTLVTVSS VL: DIQMTQSPSSLSASVGDRVTITCRPSQRISRYLNWYQQKPGKAPKFLIYAASSLPSGVPSRFSGSGSGTDFTLTISTLQPEDFATYYCQQSYSTPPWTFGQGTKVEIK
4 | 386 | 423 | 99 | no binding (tested: 10 ug/ml) | 2.57 | 2.81 | – | – | – | – | – | – | – | 5.16.1 (antibody, V domains shown) VH: QVQLVQSGAEVKKPGASVKVSCKASGYTFTSYYMYWVRQAPGQGLEWMGIINPSGGSTSYAQKFQGRVTMTRDTSTSTVYMELSSLRSEDTAVYYCARGSSPFFDYWGQGTLVTVSS VL: DIQMTQSPSSLSASVGDRVTITCRASQIISHFLNWYQQKPGKAPKLLVYVASSLQSGVPSRFSGSGSGTDFTLTISSLQPEDFATYYCQQSFSIPLTFGGGTKVEIK
5 | 308 | 316 | 99 | no binding (tested: 10 ug/ml) | 2.05 | 2.1 | – | – | – | 0.057 | 0.164 | 4.89e-05 | 298000 | 2.998.2 (antibody, V domains shown, identified by its values; also called mAb 2.998.2) VH: QLQLQESGPGLVKPSETLSLTCTVSGDSISSFIYYWGWIRQPPGKGLEWIGTIYYSGSTYYNPSLKSRVTISVDTSKNQFSLKLRSVTAADTAVYYCARHHWVFDYWGQGTQVTVSS VL: DIVLTQFPDFQSVTPKEKVTITCRASQVIGSSLHWYQQKPDQSPKLLIKYASQSFSGVPSRFSGSGSGTDFTLTINSLEVEDAATYYCHQSTILPWTFGQGTKVEVK
6 | – | – | – | – | – | – | 99 | 2.1 nM | 0.057 nM | – | – | – | – | 2.998.2 (antibody, V domains shown) VH: QLQLQESGPGLVKPSETLSLTCTVSGDSISSFIYYWGWIRQPPGKGLEWIGTIYYSGSTYYNPSLKSRVTISVDTSKNQFSLKLRSVTAADTAVYYCARHHWVFDYWGQGTQVTVSS VL: DIVLTQFPDFQSVTPKEKVTITCRASQVIGSSLHWYQQKPDQSPKLLIKYASQSFSGVPSRFSGSGSGTDFTLTINSLEVEDAATYYCHQSTILPWTFGQGTKVEVK
7 | – | – | – | – | – | – | 98 | 481 ng/ml and 3.2 nM | 0.227 nM | – | – | – | – | 2.84.3 (antibody, V domains shown) VH: QLQLQESGPGLVKPSETLSLTCTVSGGFISSSSYYWGWIRQPPGKGLEWIGTIYYSGTTYYNSSLKSRVTISVDTSQNQFSLKLSSVTAADTAVYYCARHHWVFDYWGQGTLVTVSS VL: EVVLTQSPDFQSVTPKEKITITCRASQIIGTSLHWYQKKPDQSPKLLIKYASQSFSGVPSRFSGSGSGTEFTLTINSLEAEDTATYYCHQSTNLPWTFGQGTKVEIK [2.84.3, listing 1 of 2 here]
8 | 658 | 349 | 99 | no binding (tested: 10 ug/ml) | 4.4 | 2.3 | – | – | – | – | – | – | – | 2.414.2 (antibody, V domains shown) VH: QLQLQESGPGLVKPSETLSLTCTVSGGSISSSNYYWGWIRQPPGKGLEWIGTIYYTGSTYYNPSLKSRVTISVDTSKNQFSLKLSSVTAADTAVYYCARHHWVFDYWGQGTLVTVSS VL: EIVLTQSPDFLSVTPKEKVTITCRASQIIGSSLHWYQQKPDQSPKLLIKYASQSFSGVPSRFSGSGSGTDFTLTLNSLEAEDAATYYCHQSTILPWTFGQGTKVEIK
9 | 192 | 481 | 98 | no binding (tested: 10 ug/ml) | 1.3 | 3.2 | – | – | – | 0.227 | – | – | – | 2.84.3 (antibody, V domains shown) VH: QLQLQESGPGLVKPSETLSLTCTVSGGFISSSSYYWGWIRQPPGKGLEWIGTIYYSGTTYYNSSLKSRVTISVDTSQNQFSLKLSSVTAADTAVYYCARHHWVFDYWGQGTLVTVSS VL: EVVLTQSPDFQSVTPKEKITITCRASQIIGTSLHWYQKKPDQSPKLLIKYASQSFSGVPSRFSGSGSGTEFTLTINSLEAEDTATYYCHQSTNLPWTFGQGTKVEIK [2.84.3, listing 2 of 2 here]
10 | 1040 | 652 | 99 | no binding (tested: 10 ug/ml) | – | – | – | – | – | – | – | – | – | 2.542.2 (antibody, V domains shown) VH: QLQLQESGPGLVKPSETLSLTCTVSGGSISSSTYYWGWIRQPPGKGLEWIGTIYYSGSTYYNPSLKSRVTISVDTSKNQFSLKLNSVTAADTAVYYCARHHWVFDYWGQGTLVTVSS VL: EIVLTQSPDFLSVTPKEKVTITCRASQIIGSSLHWYQQKPDQSPNLLIKYASQSVSGVPSRFSGSGSGTDFTLTLNSLEAEDAATYYCHQSTILPWTFGQGTKVEIK
11 | 498 | 757 | 99 | no binding (tested: 10 ug/ml) | – | – | – | – | – | – | – | – | – | 2.796.2 (antibody, V domains shown) VH: QVQLVESGGGLVKPGGSLRLSCAASGFTFSDYYMNWIRQAPGKGLEWVSYISSSGSIIYYADSVKGRFTISRDNAKNSLYLQMNSLRAEDTAVYYCARDGHIAARGMDVWGQGTTVTVSS VL: DIQMTQSPSSLSASVGDRVTITCRASQSFSRYINWYQQKPGKAPKLLIYAASSLQGGVPSRFSGSGSGTDFTLTISSLQPEDFATYYCQQTYSNPPITFGQGTRLEIK
12 | 551 | 558 | 99 | no binding (tested: 10 ug/ml) | 3.7 | 3.73 | – | – | – | – | – | – | – | 2.737.1.4 (antibody, V domains shown) VH: QVQLVESGGGLVKPGGSLRLSCAASGFTFRDYYMSWIRQAPGKGLEWVAFISSSGSIIYYADSVKGRFTISRDNAKNSLFLQMNSLRAEDTAVYYCARDGHIAARGMDVWGQGTTVTVSS VL: DIQMTQSPSSLSASVGDRVTITCRASQSINKYINWYQQKPGKAPKLLIYAASSLQSGVPSRFNGSGSGTDFTFTINTLQPEDFATYYCQQTYSTPPITFGQGTRLEIK
13 | – | – | – | – | – | – | 99 | 1.57 nM | 0.052 nM and 0.053 nM | – | – | – | – | 2.449.1.3 (antibody, V domains shown, also called 2.449.1.3 (control)) VH: QVQLVESGGGLVKPGGSLRLSCAASGFTFSDYYMNWIRQAPGKGLEWVSYISSSGSIIYYADSVKGRFTISRDNAKNSLYLQMNSLRAEDTAVYYCAREGRIAARGMDVWGQGTTVTVSS VL: DIQMTQSPSSLSASVGDRVSITCRPSQSFSRYINWYQQKPGKAPKLLIHAASSLVGGVPSRFSGSGSGTDFTLTISSLQPEDFATYYCQQTYSNPPITFGQGTRLEMK
14 | 1280 | 492 | 99 | no binding (tested: 10 ug/ml) | 8.5 | 3.3 | – | – | – | – | – | – | – | 2.2071.1.3 (antibody, V domains shown) VH: QVQLVESGGGLVKPGGSLRLSCAASGFTFSDYYMNWIRQAPGKGLEWVSYISSSGSIIYYADSVKGRFTISRDNAKNSLYLQMNSLRAEDTAVYYCARDGRIVARGMDVWGQGTTVTVSS VL: DIQMTQSPSSLSASVGDRVTLTCRASHSINRYINWYQQKPGKAPKLLIYAASSLQSGVPSRFSGNGSGTDFTLTISSLQPEDFATYYCQQSYSTPPITFGQGTRLEIT
